Columns and labels:
[1] = target: alpha-synuclein fibrils, P37840; test: SPR, captured mAb; conditions: remark: other sources report otherwise
[2] = target: monomeric alpha-synuclein, P37840; test: SPR, captured mAb; conditions: remark: other sources report otherwise

| Binder | Kd [1] | koff [1] | kon [1] | Kd [2] | koff [2] | kon [2] |
| --- | --- | --- | --- | --- | --- | --- |
| ACI-8033-19A2-Ab1 (antibody, V domains shown) VH: EVQLVESGGGLVQPKGSLKLSCAASGFSFNTYAMNWVRQAPGKGLEWVARIRSKSNNYATYYVDSVKDRFTISRDDSESMLYLQMNNLKTEDTALYYCVSESAYWGQGTLVTVSA VL: DVVMTQTPLSLPVSLGDQASISCRSSQSLVHSNGNTYLYWYLQKPGQSPKLLIYKVSNRLSGVPDRFSGSGSGTDFTLKISRVEAEDLGVYFCSQSTHVPFTFGSGTKLEIK | 6.7 nM | 0.000119 s⁻¹ | 17700 M⁻¹ s⁻¹ | 6.2 nM | 0.0828 s⁻¹ | 1.33e+07 M⁻¹ s⁻¹ |
| ACI-7089-4418F6-Ab1 (antibody, V domains shown) VH: QVQLQQSGAELARPGASVKVSCKASGYTFTSSGISWLKHRTGQGLEWIGDIYPRSGNTYYNEKFKDKATLTADKSSSTAYMELRSLTSEDSAVYFCSSGNYWGQGTTLTVSS VL: DIVITQDDLSNPVTSGESVSISCRSSKSLLYKDGKTYLNWFLQRPGQSPQLLIYLMSTRASGVSDRFSGSGSGTDFTLEISRVKAEDVGVYYCQQLLEYPLTFGAGTKLELK | 0.04 nM | 1.14e-05 s⁻¹ | 272000 M⁻¹ s⁻¹ | 0.1 nM | 9.25e-06 s⁻¹ | 81800 M⁻¹ s⁻¹ |
| ACI-7089-4409F1-Ab1 (antibody, V domains shown) VH: DVQLQESGPGLVKPSQSLSLTCSVTGYSITRGYYWNWIRQFPGNKLEWMGYISYDGSNNYNPSLRNRISITRDTSKNQFFLKLKSVTTEDTATYFCARGDSNWGQGTTLTVSA VL: not shown | 8.8 nM | 0.00587 s⁻¹ | 667000 M⁻¹ s⁻¹ | 6.4 nM | 0.000992 s⁻¹ | 154000 M⁻¹ s⁻¹ |
| ACI-8033-4F3-Ab1 (antibody, V domains shown) VH: EVQLQQSGPELVKPGASVKISCKASGYTFTDYYMNWVKQSHGKSLEWIGDINPNTGTNSYNQKFKGRASLTVDKFSSAAYMELRSLTSEDSAVYYCARTGYGDPISSYYYALDYWGQGTSVTVSS VL: DIVMSQSPSSLAVSAGEKVTMSCKSSQSLLNSRTRKNYLAWYQQKPGQSPKLLIYWASTRESGVPDRFTGSGSGTDFTLTISSVQAEDLAVYYCKQSYNLWTFGGGTKLEIK | 0.05 nM | 2.24e-07 s⁻¹ | 4500 M⁻¹ s⁻¹ | 1.7 nM | 0.00016 s⁻¹ | 97000 M⁻¹ s⁻¹ |

Further binders by falling Kd [1], results first:

| Kd [1] | koff [1] | kon [1] | Kd [2] | koff [2] | kon [2] | Binder |
| --- | --- | --- | --- | --- | --- | --- |
| 14.3 nM | 0.00118 s⁻¹ | 271000 M⁻¹ s⁻¹ | 4.4 nM | 0.000565 s⁻¹ | 131000 M⁻¹ s⁻¹ | ACI-7067-1108H1-Ab1 (antibody, V domains shown) VH: EVKLVESGGGLVQPGGSMKLSCTASGFTFSDAWMNWVRQSPEKGLEWVAEIRNKAHNHATNYAESVKGRFTISGDDSKSSVYLQMNNLRAEDTGIYYCTIYSFWGQGTLVTVSA VL: SIVMTQTPKFLLVSAGDRVTITCKASQSVTNYVAWYHQKPGQSPKLLIYSASNRYSGVPDRFTGSGYGTDFTFTINTVQTEDLAVYFCQQDYRIPYTFGGGTKLEIK |
| 9.8 nM | 6.53e-05 s⁻¹ | 6660 M⁻¹ s⁻¹ | 31.9 nM | 0.0327 s⁻¹ | 1.02e+06 M⁻¹ s⁻¹ | ACI-8033-1A12-Ab1 (antibody, V domains shown) VH: QVHLKQSGADLVRPGASVKLSCKASGYSFTDFYINWVKQTPGQGLEWIARIYPGNNNTFYNEKFKGKATLSAEKSSTTAYMQLSSLTSEDSAVYFCVVGYYGAWGQGTTLTVSS VL: DVVMTQTPLSLPVSLGDQASISCRSSQSLVHSNGNTHLHWYLQKPGQSPKLLIYKVSNRFSGVPDRFSGSGSGTDFTLKISRVEAEDLGFYFCSQSTHVPWTFGGGTKLEIK |
| 8.7 nM | 0.00012 s⁻¹ | 13700 M⁻¹ s⁻¹ | 2.4 nM | 0.000232 s⁻¹ | 96600 M⁻¹ s⁻¹ | ACI-8033-17F5-Ab1 (antibody, V domains shown) VH: EVQLQQSGPELVKPGASVKISCKASGYTFTDYFMNWVKQSHGKSLEWIGDINPNIDVTNYNQKFKGKATLTVDKSSSTAYMELRSLTSEDSAVYYCARGRDYAMDFWGQGTSVTVSS VL: DIVMSQSPSSLAVSAGEKVTMSCKSSQSLLNSRTRKNYLAWYQQKPGQSPKLLIYWASTRESGVPDRFTGSGSGTDFTLTISSVQAEDLAVYYCKQSYDLWTFGGGTKLEIK |
